Laboratory results reported in patent US20240141072A1 (published 2024).
Values belong to the binder of their own block, whether it stands above or below them.

Assays:
Experiment in all cases: Octet BLI; biotinylated purified CHO trispecific on streptavidin tips; 60, 20, 6.67, 2.22 nM
[1] = target: T1, anti-DLL3 trispecific protein with DLL3 binding domain 52D04
T1 construct: trispecific, one chain; same domain order as the TAC protein m79; also called 52D4

[2] = target: T2, anti-DLL3 trispecific protein with DLL3 binding domain 51A05
T2 construct: trispecific, one chain; also called 51A5

[3] = target: T3, anti-DLL3 trispecific protein with DLL3 binding domain 52C04
T3 construct: trispecific, one chain; also called 52C4

[4] = target: T4, anti-DLL3 trispecific protein with DLL3 binding domain 51G10
T4 construct: trispecific, one chain

[5] = target: T5, anti-DLL3 trispecific protein with DLL3 binding domain 51H05
T5 construct: trispecific, one chain; also called 51H5

[6] = target: T6, anti-DLL3 trispecific protein with DLL3 binding sequence 51X5
T6 construct: trispecific, one chain

[7] = target: T7, anti-DLL3 trispecific protein with DLL3 binding domain 51F03
T7 construct: trispecific, one chain; also called 51F3

[8] = target: T8, anti-DLL3 trispecific protein with DLL3 binding domain 51G02
T8 construct: trispecific, one chain; also called 51G2

[9] = target: T9, anti-DLL3 trispecific protein with DLL3 binding domain 52B01
T9 construct: trispecific, one chain; also called 52B1

[10] = target: T10, anti-DLL3 trispecific protein containing the parental DLL3 binder DH6
T10 construct: trispecific, one chain
T10 sequence (chain, as listed by the source): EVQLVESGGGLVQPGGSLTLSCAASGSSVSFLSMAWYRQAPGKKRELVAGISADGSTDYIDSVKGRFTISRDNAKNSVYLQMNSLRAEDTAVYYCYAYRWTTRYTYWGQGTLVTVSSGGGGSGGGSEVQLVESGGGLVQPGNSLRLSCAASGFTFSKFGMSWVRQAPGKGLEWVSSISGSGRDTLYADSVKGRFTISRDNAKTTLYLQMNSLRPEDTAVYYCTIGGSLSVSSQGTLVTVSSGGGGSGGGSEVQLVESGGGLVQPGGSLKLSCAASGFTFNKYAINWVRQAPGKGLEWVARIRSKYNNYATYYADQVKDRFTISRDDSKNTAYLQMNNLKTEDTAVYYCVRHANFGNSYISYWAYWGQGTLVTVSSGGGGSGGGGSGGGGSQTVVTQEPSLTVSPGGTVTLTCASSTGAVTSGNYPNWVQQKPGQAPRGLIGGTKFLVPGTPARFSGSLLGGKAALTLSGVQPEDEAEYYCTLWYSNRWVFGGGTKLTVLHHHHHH

T1 sequence (chain, as listed by the source): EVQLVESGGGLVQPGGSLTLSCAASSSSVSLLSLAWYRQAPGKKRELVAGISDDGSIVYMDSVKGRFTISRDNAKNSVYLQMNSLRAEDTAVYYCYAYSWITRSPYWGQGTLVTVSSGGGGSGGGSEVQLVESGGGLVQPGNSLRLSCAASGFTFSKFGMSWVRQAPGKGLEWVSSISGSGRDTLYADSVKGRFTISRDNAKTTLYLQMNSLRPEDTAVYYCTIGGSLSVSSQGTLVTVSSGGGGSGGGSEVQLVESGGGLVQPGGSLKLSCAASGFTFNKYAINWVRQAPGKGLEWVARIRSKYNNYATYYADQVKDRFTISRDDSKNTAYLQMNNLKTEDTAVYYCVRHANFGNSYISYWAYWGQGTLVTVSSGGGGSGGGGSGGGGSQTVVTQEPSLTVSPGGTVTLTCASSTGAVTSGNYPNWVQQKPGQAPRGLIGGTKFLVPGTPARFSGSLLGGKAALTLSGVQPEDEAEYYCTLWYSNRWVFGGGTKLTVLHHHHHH
T7 sequence (chain, as listed by the source): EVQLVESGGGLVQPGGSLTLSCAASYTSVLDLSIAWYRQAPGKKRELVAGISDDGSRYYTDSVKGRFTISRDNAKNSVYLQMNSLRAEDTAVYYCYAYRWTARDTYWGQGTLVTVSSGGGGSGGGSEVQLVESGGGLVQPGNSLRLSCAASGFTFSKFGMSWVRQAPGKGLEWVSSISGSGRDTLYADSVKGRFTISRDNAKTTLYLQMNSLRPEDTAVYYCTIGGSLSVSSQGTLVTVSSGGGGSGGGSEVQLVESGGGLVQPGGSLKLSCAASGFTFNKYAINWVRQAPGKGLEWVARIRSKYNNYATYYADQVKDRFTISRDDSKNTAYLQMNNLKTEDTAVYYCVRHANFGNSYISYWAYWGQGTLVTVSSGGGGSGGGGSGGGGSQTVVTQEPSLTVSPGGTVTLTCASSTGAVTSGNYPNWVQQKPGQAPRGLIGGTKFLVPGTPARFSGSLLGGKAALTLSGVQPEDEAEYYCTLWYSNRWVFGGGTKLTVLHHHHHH
T3 sequence (chain, as listed by the source): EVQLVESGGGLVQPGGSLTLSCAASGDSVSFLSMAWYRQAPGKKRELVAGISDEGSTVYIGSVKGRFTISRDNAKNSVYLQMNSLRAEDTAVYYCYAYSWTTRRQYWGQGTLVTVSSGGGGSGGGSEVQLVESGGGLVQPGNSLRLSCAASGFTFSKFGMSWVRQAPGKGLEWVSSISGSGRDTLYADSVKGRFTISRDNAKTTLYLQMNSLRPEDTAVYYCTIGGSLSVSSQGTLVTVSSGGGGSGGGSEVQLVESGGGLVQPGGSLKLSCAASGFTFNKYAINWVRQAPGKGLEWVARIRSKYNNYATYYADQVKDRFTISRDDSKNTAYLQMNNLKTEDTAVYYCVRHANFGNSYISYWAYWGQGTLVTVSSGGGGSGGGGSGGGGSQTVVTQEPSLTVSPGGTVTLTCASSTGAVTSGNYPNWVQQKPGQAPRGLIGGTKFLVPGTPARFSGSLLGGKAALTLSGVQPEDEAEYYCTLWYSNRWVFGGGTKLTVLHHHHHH
T6 sequence (chain, as listed by the source): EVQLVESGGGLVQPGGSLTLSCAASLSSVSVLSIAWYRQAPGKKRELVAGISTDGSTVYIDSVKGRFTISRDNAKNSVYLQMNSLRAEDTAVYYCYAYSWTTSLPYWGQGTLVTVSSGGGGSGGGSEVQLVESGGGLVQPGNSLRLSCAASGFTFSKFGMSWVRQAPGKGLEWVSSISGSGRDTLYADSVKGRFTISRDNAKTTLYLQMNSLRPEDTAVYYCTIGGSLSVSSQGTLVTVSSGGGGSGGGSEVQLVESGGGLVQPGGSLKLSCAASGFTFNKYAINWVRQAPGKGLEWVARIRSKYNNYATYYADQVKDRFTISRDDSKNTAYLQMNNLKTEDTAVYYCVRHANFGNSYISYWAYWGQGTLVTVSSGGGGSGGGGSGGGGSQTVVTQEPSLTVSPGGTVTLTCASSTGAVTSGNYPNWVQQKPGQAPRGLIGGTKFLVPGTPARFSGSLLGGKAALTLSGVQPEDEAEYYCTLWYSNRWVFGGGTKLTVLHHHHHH
T8 sequence (chain, as listed by the source): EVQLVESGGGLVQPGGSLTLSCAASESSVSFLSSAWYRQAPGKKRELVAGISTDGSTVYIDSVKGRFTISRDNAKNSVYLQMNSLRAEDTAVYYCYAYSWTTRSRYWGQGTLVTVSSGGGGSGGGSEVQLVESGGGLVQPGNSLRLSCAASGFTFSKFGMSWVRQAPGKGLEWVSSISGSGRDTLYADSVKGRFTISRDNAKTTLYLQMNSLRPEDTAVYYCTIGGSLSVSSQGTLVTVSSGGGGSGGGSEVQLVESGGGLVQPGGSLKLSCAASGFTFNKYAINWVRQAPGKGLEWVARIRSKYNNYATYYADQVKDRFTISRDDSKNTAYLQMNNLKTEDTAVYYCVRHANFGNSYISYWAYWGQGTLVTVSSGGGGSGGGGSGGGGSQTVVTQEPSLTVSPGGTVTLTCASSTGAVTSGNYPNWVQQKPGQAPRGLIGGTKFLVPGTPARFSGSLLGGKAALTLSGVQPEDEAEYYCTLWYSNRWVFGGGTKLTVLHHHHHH
T9 sequence (chain, as listed by the source): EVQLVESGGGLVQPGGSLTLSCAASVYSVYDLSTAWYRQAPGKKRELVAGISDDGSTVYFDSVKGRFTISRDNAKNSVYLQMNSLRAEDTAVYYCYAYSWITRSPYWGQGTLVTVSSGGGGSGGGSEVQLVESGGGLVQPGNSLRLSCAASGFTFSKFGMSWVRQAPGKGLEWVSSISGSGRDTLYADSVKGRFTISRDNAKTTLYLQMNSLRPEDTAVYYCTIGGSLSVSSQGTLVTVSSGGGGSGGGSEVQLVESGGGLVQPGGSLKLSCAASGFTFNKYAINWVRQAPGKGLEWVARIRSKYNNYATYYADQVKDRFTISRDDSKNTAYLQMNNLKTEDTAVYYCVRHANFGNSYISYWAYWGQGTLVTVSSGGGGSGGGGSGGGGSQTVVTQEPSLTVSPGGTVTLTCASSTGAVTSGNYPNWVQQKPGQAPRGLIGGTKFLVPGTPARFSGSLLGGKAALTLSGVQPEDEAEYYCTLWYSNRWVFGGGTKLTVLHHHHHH
T5 sequence (chain, as listed by the source): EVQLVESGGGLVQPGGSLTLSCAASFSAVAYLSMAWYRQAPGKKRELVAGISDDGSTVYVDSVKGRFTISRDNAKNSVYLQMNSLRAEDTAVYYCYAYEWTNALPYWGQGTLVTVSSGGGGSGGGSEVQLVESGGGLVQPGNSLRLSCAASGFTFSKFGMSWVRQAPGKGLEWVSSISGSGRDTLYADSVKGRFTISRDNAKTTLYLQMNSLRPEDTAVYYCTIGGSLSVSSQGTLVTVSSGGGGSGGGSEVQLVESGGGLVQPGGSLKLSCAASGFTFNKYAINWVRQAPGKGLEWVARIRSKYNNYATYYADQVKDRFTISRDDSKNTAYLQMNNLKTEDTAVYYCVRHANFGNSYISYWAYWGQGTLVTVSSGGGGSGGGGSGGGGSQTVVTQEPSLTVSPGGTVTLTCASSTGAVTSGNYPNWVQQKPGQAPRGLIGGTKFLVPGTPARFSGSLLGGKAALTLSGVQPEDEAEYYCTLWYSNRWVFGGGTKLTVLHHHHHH
T4 sequence (chain, as listed by the source): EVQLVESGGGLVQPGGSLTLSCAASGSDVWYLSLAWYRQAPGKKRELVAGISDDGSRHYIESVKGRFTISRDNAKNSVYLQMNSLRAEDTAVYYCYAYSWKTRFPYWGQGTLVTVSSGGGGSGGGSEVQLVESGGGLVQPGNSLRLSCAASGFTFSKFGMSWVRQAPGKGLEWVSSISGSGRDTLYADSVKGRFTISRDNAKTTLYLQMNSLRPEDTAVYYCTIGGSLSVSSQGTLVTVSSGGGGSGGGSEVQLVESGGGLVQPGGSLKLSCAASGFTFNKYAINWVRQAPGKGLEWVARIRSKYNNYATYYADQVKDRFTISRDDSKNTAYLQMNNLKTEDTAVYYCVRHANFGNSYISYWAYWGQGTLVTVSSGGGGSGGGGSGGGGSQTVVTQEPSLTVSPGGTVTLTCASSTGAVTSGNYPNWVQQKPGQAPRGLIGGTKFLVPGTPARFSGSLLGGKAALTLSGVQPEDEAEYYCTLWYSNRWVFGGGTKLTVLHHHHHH
T2 sequence (chain, as listed by the source): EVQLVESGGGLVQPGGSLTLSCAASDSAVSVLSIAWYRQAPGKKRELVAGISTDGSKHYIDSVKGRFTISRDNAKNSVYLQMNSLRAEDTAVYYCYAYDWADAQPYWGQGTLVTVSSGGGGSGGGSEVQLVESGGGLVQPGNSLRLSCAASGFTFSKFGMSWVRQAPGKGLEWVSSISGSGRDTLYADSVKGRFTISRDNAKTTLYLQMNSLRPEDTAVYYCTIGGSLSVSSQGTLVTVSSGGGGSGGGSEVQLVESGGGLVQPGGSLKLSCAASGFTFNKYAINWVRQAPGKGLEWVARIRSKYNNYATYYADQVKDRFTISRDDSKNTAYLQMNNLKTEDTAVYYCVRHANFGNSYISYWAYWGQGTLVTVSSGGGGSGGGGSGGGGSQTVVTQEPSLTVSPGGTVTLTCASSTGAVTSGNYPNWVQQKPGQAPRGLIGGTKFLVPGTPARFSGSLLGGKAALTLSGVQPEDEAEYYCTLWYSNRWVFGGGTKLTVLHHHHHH

Kd [1]: 1.7 nM
Kd [2]: 1.6 nM
Kd [3]: 3 nM
Kd [4]: 1.4 nM
Kd [5]: 1.6 nM
Kd [6]: 1.5 nM
Kd [7]: 2 nM
Kd [8]: 3.4 nM
Kd [9]: 1.9 nM
Kd [10]: 11 nM
B1: cynomolgus DLL3 protein (Example 6) (ligand)
chain: AGVFELQIHSFGPGPGGAPRSPYSARGPCRLFFRVCLKPGLSEEAAESPCALGAALSARGPVYTEQPEAPAPDLPLPNGLLQVPFRDAWPGTFSLIIETWREELGDQIGGPAWSLLARVTRRRRLAAGGPWAGDIQRAGAWELRFSYRARCELPAVGTACTRLCRPRSASRCGPGLRPCAPLEDECEAPPVCRAGCSLEHGFCEQPGECRCLEGWTGPLCMVPVSTSSCLGLRGPSSTTTGCLVPGPGPCDGNPCANGGSCSETPGSFECTCPRGFYGLRCEVSGVTCADGPCFNGGLCVGGADPDSAYICHCPPGFQGSNCEKRVDRCSLQPCRNGGLCLDLGHALRCRCRAGFAGPRCEHDLNDCAGRACANGGTCVEGGGAHRCSCALGFGGRDCRERADPCAARPCAHGGRCYAHFSGLVCACAPGYMGARCEFPVHPDGVSALPAAPPGLRPGDPQRYP
notes: also called cyDLL3

Kd [1]: 0.9 nM
Kd [2]: 1.2 nM
Kd [3]: 2.2 nM
Kd [4]: 0.9 nM
Kd [5]: 0.9 nM
Kd [6]: 1 nM
Kd [7]: 1.4 nM
Kd [8]: 2 nM
Kd [9]: 1.1 nM
Kd [10]: 13.5 nM
B2: human DLL3 protein (Example 6) (ligand)
chain: AGVFELQIHSFGPGPGPGAPRSPCSARLPCRLFFRVCLKPGLSEEAAESPCALGAALSARGPVYTEQPGAPAPDLPLPDGLLQVPFRDAWPGTFSFIIETWREELGDQIGGPAWSLLARVAGRRRLAAGGPWARDIQRAGAWELRFSYRARCEPPAVGTACTRLCRPRSAPSRCGPGLRPCAPLEDECEAPLVCRAGCSPEHGFCEQPGECRCLEGWTGPLCTVPVSTSSCLSPRGPSSATTGCLVPGPGPCDGNPCANGGSCSETPRSFECTCPRGFYGLRCEVSGVTCADGPCFNGGLCVGGADPDSAYICHCPPGFQGSNCEKRVDRCSLQPCRNGGLCLDLGHALRCRCRAGFAGPRCEHDLDDCAGRACANGGTCVEGGGAHRCSCALGFGGRDCRERADPCAARPCAHGGRCYAHFSGLVCACAPGYMGARCEFPVHPDGASALPAAPPGLRPGDPQRYL
notes: also called huDLL3
